The text below walks through data of paper PMC13376213 (Nature Communications, 2026).

Ends that are not written are not given here.

The target of the test is USP11 tandem DUSP-UBL domain, tag cleaved (for FP) (human). Nature of the test: fluorescence polarisation; saturation or displacement not stated for this experiment; 50 mM phosphate buffer pH 7.4, room temperature. The following applies: both partners purified. (In general: In fluorescence polarisation assays a small probe gives low polarisation when free and higher when bound to something large.)
USP11 tandem DUSP-UBL domain, tag cleaved (for FP) (human), sequence (chain, as listed by the source): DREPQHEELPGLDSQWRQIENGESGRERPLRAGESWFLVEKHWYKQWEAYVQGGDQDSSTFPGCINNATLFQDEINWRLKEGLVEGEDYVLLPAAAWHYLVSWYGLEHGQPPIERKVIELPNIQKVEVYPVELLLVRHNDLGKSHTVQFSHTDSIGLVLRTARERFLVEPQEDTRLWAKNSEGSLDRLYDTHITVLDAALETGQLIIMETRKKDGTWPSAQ

With SAVTYPDWIGQSYSEV-NH2 (also: N-terminus FITC-labeled or acetylated, not given here which) [ORAI1 peptide used for FP], the Kd is 200 to 300 µM.

What is called Kd is the equilibrium constant for the complex coming apart. Lower therefore signals higher affinity.
